Key:
[1] = molecular target: PcrG (Pseudomonas aeruginosa strain 2192); test: SPR; BIACORE 3000, NTA sensor chip; […]; 10 mM hepes pH 7.4, 150 mM NaCl, 50 μM EDTA; 25°C; 5 μl/min; Langmuir binding model
[2] = molecular target: PcrG (Pseudomonas aeruginosa strain 2192); test: SEC; HiLoad 16/60 Superdex 200 pg; 25 mM Tris–HCl pH 7.4, 150 mM NaCl; proteins 2–5 mg/ml; 1 ml/min; calibrated with markers
[3] = molecular target: PcrG (Pseudomonas aeruginosa strain 2192); test: dynamic light scattering; Malvern Zetasizer nano ZS; proteins 2–5 mg/ml, filtered 0.22 micron; ΔPcrV(128–294) alone and with equimolar PcrG
[4] = molecular target: ∆PcrG_((13–72)) (Pseudomonas aeruginosa strain 2192); test: SPR; BIACORE 3000, NTA sensor chip; […]; 10 mM hepes pH 7.4, 150 mM NaCl, 50 μM EDTA; 25°C; 5 μl/min; Langmuir binding model
[5] = molecular target: PcrG (Pseudomonas aeruginosa strain 2192); test: cross-linking; EGS-sulfonate 0.5 mM, 1 mM and 2 mM, room temperature, 30 minutes; 10 mM hepes pH 7.4, 150 mM NaCl; 12% SDS PAGE
[6] = molecular target: ∆PcrG_((13–72)) (Pseudomonas aeruginosa strain 2192); test: native MS; called native mass spectrometry; protein diluted to 0.5-1.0 mg/ml in HPLC water, spotted on a MALDI target plate with CHCA matrix; Applied Biosystem 4700 Proteomics Analyser

Substance “ΔPcrV_((159–294)) (from UniProt G3XD49 159-294) (domain or fragment)” has a Kd [1] of 36.6 nM.

“ΔPcrV_((1–158)) (from UniProt G3XD49 1-158) (domain or fragment)” was tested, and the Kd [1] was 203 nM.

In the case of PcrG (natural protein), the stoichiometry N [2] is reported as 2.

Substance “ΔPcrV_((128–294)) (from UniProt G3XD49 128-294) (domain or fragment)” has a stoichiometry N [3] of 1, a Ka [4] of 1.61e+06 M⁻¹ and a Kd [4] of 621 nM. It also gave a koff [4] of 1.69e-05 s⁻¹, a kon [4] of 27.2 M⁻¹ s⁻¹ and a Ka [1] of 4.11e+07 M⁻¹. The Kd [1] was 24.3 nM, the koff [1] was 1.24e-05 s⁻¹ and the kon [1] was 511 M⁻¹ s⁻¹. For the same substance, the stoichiometry N [5] was 1.

Work on “ΔPcrV_((128–250)) (from UniProt G3XD49 128-250) (domain or fragment)” yielded a Kd [1] of 247 nM.

Substance “PcrV (from UniProt G3XD49 1-294) (natural protein)” has a Ka [4] of 1.75e+06 M⁻¹, a Kd [4] of 570 nM and a koff [4] of 0.00978 s⁻¹. For the same substance, the kon [4] was 17100 M⁻¹ s⁻¹.

In the case of “ΔPcrV_((1–250)) (from UniProt G3XD49 1-250) (domain or fragment)”, the Kd [1] is reported as 179 nM.

∆PcrG_((13–72)) (domain or fragment) showed a stoichiometry N [6] of 2.

Reference: paper PMC3904411
